Measured values as given in patent US12043658B2, “Conjugate comprising an active MMP-9-binding peptide” (Daiichi Sankyo Company, Limited, priority 2017, dated 2024).

B1: M91011: SPINK2 mutant active MMP-9-binding peptide, SEQ ID NO: 7 (FIG. 21) (protein)
chain: DPQFGLFSKYRTPNCMMYKYAQCSHKSQPVCGSDMSTYANECTLCMKIREGGHNIKIIRNGPC
modifications: binder
B2: M91005: SPINK2 mutant active MMP-9-binding peptide, SEQ ID NO: 5 (FIG. 19) (protein)
chain: DPQFGLFSKYRTPNCRKRGGPSCQMSYNPVCGSDMSTYANECTLCMKIREGGHNIKIIRNGPC
modifications: binder

What was measured:
active hMMP-9(cat)_M422I = biological target: T1, active hMMP-9(cat)_M422I (Homo sapiens, UniProt P14780, M422I); assay: Inhibition of human MMP-9 mutant M422I; assay type: biochemical
T1 construct: of the enzyme active domain (Phe107-Pro449) were constructed; His tag (before the propeptide) (N, cleaved yes); made in house; host or cells: FreeStyle 293F
Description: (§1) The substrate peptide MOCAc-KPLGL-A2pr(Dnp)-AR-NH2 (SEQ ID NO: 30 (FIG. 46)) (PEPTIDE […], INC.; 3226-v) was dissolved in water to 1 mM, then diluted with an assay buffer (50 mM Tris-HCl, 200 mM NaCl, 2 mM CaCl2, pH7.5) and used at the final concentration of 10 μM. 50 μl each of the active hMMP-9(cat) diluted with the assay buffer or the active hMMP-9(cat)_XnnnY and the active MMP-9-binding peptide or sc-311438 (Santa Cruz Biotechnology, Inc.) were mixed, and reacted at 37° C. for 1 hour. Then, 100 μl of the substrate diluted with the assay buffer was added, and fluorescence signals (excitation 328 nm/emission 393 nm) were measured with Enspire (PerkinElmer, Inc.). The final concentrations of the active hMMP-9(cat) and the active hMMP-9(cat)_XnnnY were at 1 nM, and the final concentrations of the active MMP-9-binding peptide and sc-311438 were at 0.5 to 330 nM. For reactions and measurements, a ProteoSave™ SS96F black plate (Sumitomo Bakelite Co., Ltd.) was used.
(§2) The 50% inhibitory concentration (IC50) of each binding peptide was calculated using GraphPad Prism (version 5.0; GraphPad Software), by calculating the substrate peptide degradation rate of the active MMP-9-binding peptide at each concentration, and taking the degradation rate at an inhibitor concentration of 0 nM as 100% (FIGS. 54(A) and 54(B)). […]

active hMMP-9(cat)_Y179A = biological target: T2, active hMMP-9(cat)_Y179A (Homo sapiens, UniProt P14780, Y179A); assay: Inhibition of human MMP-9 mutant Y179A; assay type: biochemical
T2 construct: of the enzyme active domain (Phe107-Pro449) were constructed; His tag (before the propeptide) (N, cleaved yes); made in house; host or cells: FreeStyle 293F
Description: as §1, §2

active hMMP-9(cat)_Y393A = biological target: T3, active hMMP-9(cat)_Y393A (Homo sapiens, UniProt P14780, Y393A); assay: Inhibition of human MMP-9 mutant Y393A; assay type: biochemical
T3 construct: of the enzyme active domain (Phe107-Pro449) were constructed; His tag (before the propeptide) (N, cleaved yes); made in house; host or cells: FreeStyle 293F
Description: as §1, §2

[1] = biological target: T4, human MMP-9 enzyme active domain E402Q mutant (Homo sapiens, UniProt P14780, E402Q); assay: Size exclusion chromatography binding to hMMP-9(cat)_E402Q_His6; conditions: 25 μM enzyme, 75 μM inhibitor
T4 construct: an enzyme active domain E402Q mutant (Phe107-Pro449, E402Q) and a His tag; made in house; host or cells: FreeStyle 293F
Description: (§3) With M91005 and M91011 prepared in (1-2), active hMMP-9(cat)_His6 prepared in (2-1-4), and hMMP-9(cat)_E402Q_His6 prepared in (11-3), the binding activity was evaluated by size exclusion chromatography. 25 μM active hMMP-9(cat)_His6 or hMMP-9(cat)_E402Q_His6 and 75 μM active MMP-9-binding peptide or hTIMP-1 (in-house preparation) were mixed, and reacted at 4° C. for 1 hour. After the reaction, 10 μl of the reaction solution was analyzed by size exclusion chromatography. The chromatographic conditions were as follows.
(§4) Detection: Absorbance (280 nm)
(§5) When only active hMMP-9(cat)_His6 was analyzed, the peak of active hMMP-9(cat)_His6 was detected at a retention time of 7.0 minutes (FIG. 53(A)). When a mixture reaction solution of active hMMP-9(cat)_His6 and hTIMP-1 or active MMP-9-binding peptides M91005 or M91011 was analyzed, the retention time of the peak of active hMMP-9(cat)_His6 was shifted to the high molecular weight side (FIG. 53(A)). […] When only human MMP-9(cat)_E402Q_His6 was analyzed, the peak of hMMP-9(cat)_E402Q_His6 was detected at a retention time of 7.1 minutes (FIG. 53(B)). When a mixed reaction solution of human MMP-9(cat)_E402Q_His6 and hTIMP-1 was analyzed, the retention time of the peak of hMMP-9(cat)_E402Q_His6 was shifted to the high molecular weight side (FIG. 53(B)). […] In contrast, when a mixture reaction solution of hMMP-9(cat)_E402Q_His6 and the active MMP-9-binding peptide M91005 or M91011 was analyzed, the retention time of the peak of the hMMP-9(cat)_E402Q_His6 was not changed (FIG. 53(B)). It should be noted that when only hTIMP-1 or the active MMP-9-binding peptides M91005, M91011 was analyzed, the peak of hTIMP-1 was detected at a retention time of 7.3 minutes, the peak of the active MMP-9-binding peptide M91005 was detected at a retention time of 8.2 minutes, and the peak of the active MMP-9-binding peptide M91011 was detected at a retention time of 8.1 minutes (FIG. 53(C)).

active hMMP-9(cat)_D185A = biological target: T5, active hMMP-9(cat)_D185A (Homo sapiens, UniProt P14780, D185A); assay: Inhibition of human MMP-9 mutant D185A; assay type: biochemical
T5 construct: of the enzyme active domain (Phe107-Pro449) were constructed; His tag (before the propeptide) (N, cleaved yes); made in house; host or cells: FreeStyle 293F
Description: as §1, §2

[2] = biological target: T6, wild-type active hMMP-9(cat) (Homo sapiens, UniProt P14780); assay: Inhibition of wild-type active hMMP-9(cat), substrate peptide; assay type: biochemical; conditions: wild-type active hMMP-9(cat) 1 nM, substrate peptide 10 μM
T6 construct: and an enzyme active domain (Phe107-Pro449) was constructed; His tag (before the propeptide) (N, cleaved yes); made in house; host or cells: FreeStyle 293F
Description: as §1, §2

active hMMP-9(cat)_F192A = biological target: T7, active hMMP-9(cat)_F192A (Homo sapiens, UniProt P14780, F192A); assay: Inhibition of human MMP-9 mutant F192A; assay type: biochemical
T7 construct: of the enzyme active domain (Phe107-Pro449) were constructed; His tag (before the propeptide) (N, cleaved yes); made in house; host or cells: FreeStyle 293F
Description: as §1, §2

active hMMP-9(cat)_V398A = biological target: T8, active hMMP-9(cat)_V398A (Homo sapiens, UniProt P14780, V398A); assay: Inhibition of human MMP-9 mutant V398A; assay type: biochemical
T8 construct: of the enzyme active domain (Phe107-Pro449) were constructed; His tag (before the propeptide) (N, cleaved yes); made in house; host or cells: FreeStyle 293F
Description: as §1, §2

active hMMP-9(cat)_R424T = biological target: T9, active hMMP-9(cat)_R424T (Homo sapiens, UniProt P14780, R424T); assay: Inhibition of human MMP-9 mutant R424T; assay type: biochemical
T9 construct: of the enzyme active domain (Phe107-Pro449) were constructed; His tag (ahead of the propeptide in the precursor) (N, cleaved yes); made in house; host or cells: FreeStyle 293F
Description: as §1, §2

active hMMP-9(cat)_Y423A = biological target: T10, active hMMP-9(cat)_Y423A (Homo sapiens, UniProt P14780, Y423A); assay: Inhibition of human MMP-9 mutant Y423A; assay type: biochemical
T10 construct: of the enzyme active domain (Phe107-Pro449) were constructed; His tag (ahead of the propeptide in the precursor) (N, cleaved yes); made in house; host or cells: FreeStyle 293F
Description: as §1, §2

[3] = biological target: active human MMP-9 enzyme active domain (Homo sapiens, UniProt P14780); assay: Size exclusion chromatography binding to active hMMP-9(cat)_His6; parameters: an enzyme active domain (Phe107-Pro449) and a His tag; made in house; host or cells: FreeStyle 293F; conditions: 25 μM enzyme, 75 μM inhibitor
Description: as §3, §4, §5

active hMMP-9(cat)_P193A = biological target: T11, active hMMP-9(cat)_P193A (Homo sapiens, UniProt P14780, P193A); assay: Inhibition of human MMP-9 mutant P193A; assay type: biochemical
T11 construct: of the enzyme active domain (Phe107-Pro449) were constructed; His tag (before the propeptide) (N, cleaved yes); made in house; host or cells: FreeStyle 293F
Description: as §1, §2

active hMMP-9(cat)_L397A = biological target: T12, active hMMP-9(cat)_L397A (Homo sapiens, UniProt P14780, L397A); assay: Inhibition of human MMP-9 mutant L397A; assay type: biochemical
T12 construct: of the enzyme active domain (Phe107-Pro449) were constructed; His tag (before the propeptide) (N, cleaved yes); made in house; host or cells: FreeStyle 293F
Description: as §1, §2

active hMMP-9(cat)_Y420A = biological target: T13, active hMMP-9(cat)_Y420A (Homo sapiens, UniProt P14780, Y420A); assay: Inhibition of human MMP-9 mutant Y420A; assay type: biochemical
T13 construct: of the enzyme active domain (Phe107-Pro449) were constructed; His tag (before the propeptide) (N, cleaved yes); made in house; host or cells: FreeStyle 293F
Description: as §1, §2

active hMMP-9(cat)_L187A = biological target: T14, active hMMP-9(cat)_L187A (Homo sapiens, UniProt P14780, L187A); assay: Inhibition of human MMP-9 mutant L187A; assay type: biochemical
T14 construct: of the enzyme active domain (Phe107-Pro449) were constructed; His tag (before the propeptide) (N, cleaved yes); made in house; host or cells: FreeStyle 293F
Description: as §1, §2

active hMMP-9(cat)_Q199G = biological target: T15, active hMMP-9(cat)_Q199G (Homo sapiens, UniProt P14780, Q199G); assay: Inhibition of human MMP-9 mutant Q199G; assay type: biochemical
T15 construct: of the enzyme active domain (Phe107-Pro449) were constructed; His tag (before the propeptide) (N, cleaved yes); made in house; host or cells: FreeStyle 293F
Description: as §1, §2

active hMMP-9(cat)_F110A = biological target: T16, active hMMP-9(cat)_F110A (Homo sapiens, UniProt P14780, F110A); assay: Inhibition of human MMP-9 mutant F110A; assay type: biochemical
T16 construct: of the enzyme active domain (Phe107-Pro449) were constructed; His tag (before the propeptide) (N, cleaved yes); made in house; host or cells: FreeStyle 293F
Description: as §1, §2

T4 sequence (P14780 107-449 E402Q): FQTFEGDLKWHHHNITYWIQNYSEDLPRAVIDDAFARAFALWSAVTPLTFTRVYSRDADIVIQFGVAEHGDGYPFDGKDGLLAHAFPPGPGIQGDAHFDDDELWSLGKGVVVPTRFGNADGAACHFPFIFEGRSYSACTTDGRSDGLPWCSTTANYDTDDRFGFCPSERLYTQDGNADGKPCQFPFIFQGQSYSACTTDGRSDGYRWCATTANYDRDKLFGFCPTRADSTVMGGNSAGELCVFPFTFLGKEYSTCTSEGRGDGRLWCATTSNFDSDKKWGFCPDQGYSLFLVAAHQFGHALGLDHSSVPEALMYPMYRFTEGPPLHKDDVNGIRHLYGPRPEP
T3 sequence (P14780 107-449 Y393A): as the sequence (P14780 107-449 E402Q) above, with Y287A, Q296E counted along it
T10 sequence (P14780 107-449 Y423A): as the sequence (P14780 107-449 E402Q) above, with Q296E, Y317A counted along it
T1 sequence (P14780 107-449 M422I): as the sequence (P14780 107-449 E402Q) above, with Q296E, M316I counted along it
T8 sequence (P14780 107-449 V398A): as the sequence (P14780 107-449 E402Q) above, with V292A, Q296E counted along it
Chain of active human MMP-9 enzyme active domain (P14780 107-449): as the sequence (P14780 107-449 E402Q) above, with Q296E counted along it
T6 sequence (P14780 107-449): as the sequence (P14780 107-449 E402Q) above, with Q296E counted along it
T7 sequence (P14780 107-449 F192A): as the sequence (P14780 107-449 E402Q) above, with F86A, Q296E counted along it
T2 sequence (P14780 107-449 Y179A): as the sequence (P14780 107-449 E402Q) above, with Y73A, Q296E counted along it
T12 sequence (P14780 107-449 L397A): as the sequence (P14780 107-449 E402Q) above, with L291A, Q296E counted along it
T13 sequence (P14780 107-449 Y420A): as the sequence (P14780 107-449 E402Q) above, with Q296E, Y314A counted along it
T15 sequence (P14780 107-449 Q199G): as the sequence (P14780 107-449 E402Q) above, with Q93G, Q296E counted along it
T11 sequence (P14780 107-449 P193A): as the sequence (P14780 107-449 E402Q) above, with P87A, Q296E counted along it
T9 sequence (P14780 107-449 R424T): as the sequence (P14780 107-449 E402Q) above, with Q296E, R318T counted along it
T5 sequence (P14780 107-449 D185A): as the sequence (P14780 107-449 E402Q) above, with D79A, Q296E counted along it
T14 sequence (P14780 107-449 L187A): as the sequence (P14780 107-449 E402Q) above, with L81A, Q296E counted along it
T16 sequence (P14780 107-449 F110A): as the sequence (P14780 107-449 E402Q) above, with F4A, Q296E counted along it

| Molecule | IC50 increase compared to wild type (active hMMP-9(cat)_M422I) [times] | IC50 increase compared to wild type (active hMMP-9(cat)_Y179A) [times] | IC50 increase compared to wild type (active hMMP-9(cat)_Y393A) [times] | binding to human MMP-9 enzyme active domain E402Q mutant (peak shift) [1] | IC50 increase compared to wild type (active hMMP-9(cat)_D185A) [times] | IC50 [2] [nM] | IC50 increase compared to wild type (active hMMP-9(cat)_F192A) [times] | IC50 increase compared to wild type (active hMMP-9(cat)_V398A) [times] | IC50 increase compared to wild type (active hMMP-9(cat)_R424T) [times] | IC50 increase compared to wild type (active hMMP-9(cat)_Y423A) [times] | binding to active human MMP-9 enzyme active domain (peak shift) [3] | IC50 increase compared to wild type (active hMMP-9(cat)_P193A) [times] | IC50 increase compared to wild type (active hMMP-9(cat)_L397A) [times] | IC50 increase compared to wild type (active hMMP-9(cat)_Y420A) [times] | IC50 increase compared to wild type (active hMMP-9(cat)_L187A) [times] | IC50 increase compared to wild type (active hMMP-9(cat)_Q199G) [times] | IC50 increase compared to wild type (active hMMP-9(cat)_F110A) [times] |
| --- | --- | --- | --- | --- | --- | --- | --- | --- | --- | --- | --- | --- | --- | --- | --- | --- | --- |
| B1 | 2.6 | 4.9 | > 57.6 | do not bind to human MMP-9 enzyme active domain E402Q mutant | 19.0 | 17 ± 5 | 5.0 | 4.8 | 2.7 | > 20.0 | bind to the active human MMP-9 enzyme active domain | 6.5 | 3.5 |  |  |  |  |
| B2 | 2.6 | 3.2 | 2.7 | do not bind to human MMP-9 enzyme active domain E402Q mutant |  | 17 ± 7 | > 57.8 | 2.2 |  | 13.2 | bind to the active human MMP-9 enzyme active domain |  | 2.2 | 3.1 | 6.7 | 2.3 | 4.0 |
